Measured values reported in patent US20090325867A1, “RECEPTOR-SPECIFIC TUMOUR NECROSIS FACTOR-RELATED APOPTOSIS-INDUCING LIGAND (TRAIL) VARIANTS” (MEDICAL RESEARCH COUNCIL, priority 2005, published 2009).

How the values were obtained:
Format in all cases: cell-based
[1] = test system: TRAIL DISC in Ramos cells; test: DISC analysis with biotinylated TRAIL in Ramos cells; conditions: biotinylated ligand 500 ng ml^−1, 30 min
Experimental: (§1) After exposure of the cells for 30 min, DISC complexes were isolated and analyzed for the indicated proteins by Western blotting. To provide an unstimulated receptor control (u/s), biotinylated wt or mutant TRAIL was added to lysate from untreated cells. C: Freshly isolated cells from patients with CLL were incubated for 16 h either alone or in the presence of depsipeptide (10 nM). […] The different symbols used indicate data from six individual patients and the solid line indicates the Mean.
(§2) Ramos or Jurkat cells (5×10^7 cells per treatment) were exposed to biotin-tagged recombinant His-TRAIL (biotinylated TRAIL) or one of its mutant forms (500 ng ml^−1) for 30 min and then DISC formation assessed as described previously (MacFarlane et al., 2002 ibid.).

[2] = test system: TRAIL DISC in Jurkat cells; test: DISC analysis with biotinylated TRAIL in Jurkat cells; conditions: biotinylated ligand 500 ng ml^−1, 30 min
Experimental: as §1, §2

TRAIL-R1 (DR4) = biological target: T1, TRAIL-R1 (DR4) (Homo sapiens, UniProt O00220); test: TRAIL-R1 selective apoptotic signalling (Ramos versus Jurkat cells); conditions: from apoptosis in Ramos (TRAIL-R1) and Jurkat (TRAIL-R2) cells
T1 construct: Ramos and Jurkat cells, which signal predominantly through TRAIL-R1 and TRAIL-R2, respectively; endogenous in cells; host or cells: Ramos cells (Jurkat cells as TRAIL-R2 comparison)
Description: Another test involves the assay of the effect in R1- (DR4-) only cells. This is the preferred test for DR4 selectivity as discussed herein. Preferably the ligand is applied to an R1-only signalling cell. Preferably the cell is a Ramos cell. Preferably the read-out is functional activity, preferably death-inducing activity (apoptosis). This is crucial to the test—mere binding is not as robust an indicator as functional induction of death. Thus, preferably a DR4 selective ligand according to the present invention induces death in a DR4 only signalling cell, such as a Ramos cell.
Ramos, an Epstein-Barr virus-negative Burkitt's lymphoma cell line, and Jurkat T cells (clone E6-1) were cultured as described (MacFarlane et al (2005 Cell Death and Differentiation vol 12 pages 773-782)). Blood samples were obtained from CLL patients, with patient consent and local ethical committee approval and CLL cells purified as described (MacFarlane et al (2002 Oncogene 21, 6809-6818). Cells were incubated for 16 h with depsipeptide (10 nM), provided by Dr. E. Sausville (NCI, USA). Cells were then cultured for a further 6 h with either HGSETR1 or HGS-ETR2, agonistic mAbs to TRAIL-R1 or -R2, respectively (Human Genome Sciences, Rockville, Md.), His-TRAIL-LE (a recombinant TRAIL with low endotoxin—Alexis Corporation, Nottingham, UK), His-TRAIL, a similar form of human recombinant TRAIL (MacFarlane et al (1997 J Biol Chem 272, 25417-25420)) but not further purified to reduce endotoxin levels or a mutant form of His-TRAIL as described (MacFarlane et al., 2005 ibid.). Cell lines were also pre-incubated for 30 min with a TRAIL-R1 blocking Ab and a TRAIL-R2 neutralizing Ab from Alexis and R&D systems, respectively, prior to exposure to TRAIL. Freshly isolated cells from patients with MCL were isolated, purified and incubated with different forms of TRAIL as described above for CLL cells. Samples were either analyzed immediately for apoptosis or stored at −80° C. for subsequent Western blotting. Other methods and reagents were as described (Inoue (2004 Cell Death Differ 11 Suppl 2, S193-206); MacFarlane et al., 2005 ibid).
Apoptosis was quantified by phosphatidylserine (PS) externalization in the presence of propidium iodide as described (MacFarlane et al., 2002 ibid.). Samples for Western blot analysis were prepared and caspase processing detected as described (Inoue et al., 2004 ibid.; MacFarlane et al., 2005 ibid.).
Referring to FIG. 4: Ramos cells (A) and Jurkat cells (B) were cultured with increasing concentrations of Arg191Leu or Asn199Val single mutants of His-TRAIL ([…]) or His-TRAIL (500 ng/ml), ETR1 or ETR2 (1000 ng/ml) for 4 h. Apoptosis was quantified by measuring the % PS+ cells and results shown in FIG. 4 are the Mean±SEM of three independent experiments. Thus the biological importance TRAIL residues R191 and N199 in TRAIL-R1 selectivity is shown.

B1: TRAIL.R1-5: 6His TRAIL 95-281 with 193Ser, 199Val, 201Arg, 213Trp and 215Asp (protein)
chain: TSEETISTVQEKQQNISPLVRERGPQRVAAHITGTRGRSNTLSSPNSKNEKALGRKINSWESSRSGHSFLSNLHLRNGELVIHEKGFYYIYSQTYFRFSEEIKEVTRNDKQMVQYIYKWTDYPDPILLMKSARNSCWSKDAEYGLYSIYQGGIFELKENDRIFVSVTNEHLIDMDHEASFFGAFLVG
modifications: biotin (site not stated) in the DISC analysis only; not biotinylated in the apoptosis assays
notes: 6His TRAIL 95-281 with 193Ser, 199Val, 201Arg, 213Trp and 215Asp
For B1, the “DISC formation: receptor bound, FADD and caspase-8 recruitment” value [1] was “bound predominantly TRAIL-R1 together with a small amount of TRAIL-R2”, the “DISC formation: receptor bound, FADD and caspase-8 recruitment” value [2] was “bound small amounts of both TRAIL-R1 and -R2” and the “receptor selectivity of apoptotic activity (in words)” value (TRAIL-R1 (DR4)) was “R1 selective apoptotic activity”.
